# Test system: NC(=O)c1ccc[n+]([C@@H]2O[C@H](COP(=O)(O)OP(=O)(O)OC[C@H]3O[C@@H](n4cnc5c(N)ncnc54)[C@H](O)[C@@H]3O)[C@@H](O)[C@H]2O)c1
# Assay: purified protein
# Conditions: without added Co, methanol 0.75-3000 mM, 50 mM Bis-tris propane, 55 °C, rapid-equilibrium, NAD+ binds first, brackets 95% confidence interval, varied: cofactor
substance,measurement,value
TPOSR Adh1 (Desulfofundulus kuznetsovii),Km,"0.550 [0.26, 1.3] mM"
same,kcat,1.76 s⁻¹

# Reference: PMC12093947, “Cobalt modulates methanol turnover of the alcohol dehydrogenase in Desulfofundulus kuznetsovii strain TPOSR” (Applied and Environmental Microbiology, 2025)
